B1: Mycobacterium tuberculosis toxin protein VapC26 (enzyme)
chain: MIIDTSALLAYFDAAEPDHAAVSECIDSSADALVVSPYVVAELDYLVATRVGVDAELAVLRELAGGAWELANCGAAEIEQAARIVTKYQDQRIGIADAANVVLADRYRTRTILTLDRRHFSALRPIGGGRFTVIP
B2: Mycobacterium tuberculosis antitoxin protein VapB26 (other)
chain: MDKTTVYLPDELKAAVKRAARQRGVSEAQVIRESIRAAVGGAKPPPRGGLYAGSEPIARRVDELLAGFGER

Assays:
[1] = biological target: the molecule itself; experiment: crystal structure; VapC26 homodimer
[2] = biological target: the molecule itself; experiment: crystal structure and size exclusion chromatography with MALS; VapB26 homodimer
[3] = biological target: B1; experiment: size exclusion chromatography with multi-angle light scattering

| Binder | binding result [1] | binding result [2] | binding result [3] |
| --- | --- | --- | --- |
| B1 | binds | – | – |
| B2 | – | binds | binds |

— patent US20220033439A1 (SEOUL NATIONAL UNIVERSITY R AND DB FOUNDATION, published 2022)
